Assay results reported in paper PMC3888030 (Journal of immunology (Baltimore, Md. : 1950), 2013).
Where two headings read alike, the source gives them in different places.

What was measured:
[1] = system: IVS T cells from vaccinated melanoma patients; assay type: cell-based, human
HLA-DR4 = details: cited from earlier work
[2] = biological target: purified HLA-DR4 (HLA-DRB1*0401) (human); assay: radioligand binding

For PKYVKQNTLKLAT [HA307–319], the “Background IFN-γ secretion by T cells stimulated with APC + control peptide” value (shortened to “Background IFN-γ secretion”) ([1]; Patient #2, 1 μM peptide stimulation) was 213 pg/mL, the “Background IFN-γ secretion” value ([1]; Patient #2, 10 μM peptide stimulation) was 208 pg/mL and the “Background IFN-γ secretion” value ([1]; Patient #4, 1 μM peptide stimulation) was 187 pg/mL. The “Background IFN-γ secretion” value ([1]; Patient #4, 10 μM peptide stimulation) was 191 pg/mL, the “Background IFN-γ secretion” value ([1]; Patient #5, 1 μM peptide stimulation) was 346 pg/mL and the “Background IFN-γ secretion” value ([1]; Patient #5, 10 μM peptide stimulation) was 388 pg/mL. The “affinity for HLA-DR4” value (HLA-DR4) was “high affinity”.

In the case of “MBP111–129: self peptide from myelin basic protein (PSESDELQTIQEDSAATSE; UniProt P02686 111-129, looked up, fragment)”, the “affinity for HLA-DR4” value (HLA-DR4) is listed as “binds weakly”.

Work on WNRQFYPEWTEAQRLD [gp100 44-59 APL L48F] yielded an IC50 [2] of 280 nM.

In the case of WNRQLYPEWTEAARLD [gp100 44-59 APL Q56A], the IC50 [2] is reported as 276 nM.

WNRQLYAEWTEAQRLD [gp100 44-59 APL P50A] showed an IC50 [2] of 189 nM.

Molecule WNRQLYPEWTEGQRLD [gp100 44-59 APL A55G] has an IC50 [2] of 553 nM.

For WNRQLYPAWTEAQRLD [gp100 44-59 APL E51A], the IC50 [2] was 199 nM.

In the case of WNRQLYPEATEAQRLD [gp100 44-59 APL W52A], the IC50 [2] is reported as 372 nM.

In the case of WNRQLYPEWTLAQRLD [gp100 44-59 APL E54L], the IC50 [2] is reported as 65 nM.

WNRQLYPEWTTAQRLD [gp100 44-59 APL E54T] showed an IC50 [2] of 104 nM.

For WNRQLYPEWVEAQRLD [gp100 44-59 APL T53V], the IC50 [2] was 489 nM.
